B1: PGRN granulin unit A (yeast two-hybrid construct) (peptide)
chain: DVKCDMEVSCPDGYTCCRLQSGAWGCCPFTQAVCCEDHIHCCPAGFTCDTQKGTCE
notes: also called granulin A
B2: PGRN granulin unit F (yeast two-hybrid construct) (peptide)
chain: AIQCPDSQFECPDFSTCCVMVDGSWGCCPMPQASCCEDRVHCCPHGAFCDLVHTRCI
notes: also called granulin F
B3: PGRN granulin unit C (yeast two-hybrid construct) (peptide)
chain: VPCDNVSSCPSSDTCCQLTSGEWGCCPIPEAVCCSDHQHCCPQGYTCVAEGQCQ
notes: also called granulin C

Each binder was assayed against T1, TNFR2 (TNFRSF1B/CD120b), yeast two-hybrid construct (mouse (clone from a murine embryonic …, UniProt P25119 23-258)) (assay: yeast two-hybrid, β-galactosidase assay).
T1 construct: one molecule is used for all Y2H assays; also called cell surface TNFR2
T1 sequence (looked up): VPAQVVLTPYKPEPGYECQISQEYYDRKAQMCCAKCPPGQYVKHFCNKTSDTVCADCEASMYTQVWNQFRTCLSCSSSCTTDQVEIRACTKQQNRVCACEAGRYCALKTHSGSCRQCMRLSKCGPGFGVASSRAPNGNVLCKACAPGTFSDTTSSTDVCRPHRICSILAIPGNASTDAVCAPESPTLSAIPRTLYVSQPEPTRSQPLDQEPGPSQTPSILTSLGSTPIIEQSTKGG
Method: Assay of protein-protein interactions using the Y2H system. Independent yeast colonies were analyzed for the interaction of two proteins, one of which was fused to the Ga14 DNA binding domain and the other, to the VP16 transactivation domain. Previously published procedures were followed for 1) growing and transforming the yeast strain MAV203 with the selected plasmids; and 2) determining β-galactosidase activity and growth phenotypes on selective media lacking tryptophan, leucine, histidine, and uracil.
B1: no binding.
B2: no binding.
B3: no binding.
LSKENATTDLLTKLPAHTVGD [PGRN linker region P4 (yeast two-hybrid construct)]: no binding.
ITPTGTHPLAKKLPAQRTNRAVALSSS [PGRN linker region P3 (yeast two-hybrid construct)]: no binding.
EQGPHQVPWMEKAPAHLSLPDPQALKRDV [PGRN linker region P5 (yeast two-hybrid construct)]: no binding.
